Source: the Human Domainome abundance scans (Beltran et al. 2025)

B1: Storkhead-box protein 2, residues 64 to 141; numbered along this chain, Q9P2F5 (parent)
chain: SPISQSQFIPLGEILCLAISAMNSARKPVTQEALMEHLTTCFPGVPTPSQEILRHTLNTLVRERKIYPTPDGYFIVTP

Variants of: B1
Assay: abundance fitness (aPCA) (normalised: wild type 0, dead -1); higher = more abundant; growth selection in yeast, the domain comes from the species named
Settings: Homo sapiens

Abundance fitness: each site, then its substitutions
A18: M -0.593; D -1.1; I -0.308; T -0.099; H -0.125; F -0.446; K -0.282; C -0.001; G -0.095; Q -0.26; N -0.376; S -0.197; W -0.496; V -0.163; P -0.887; R -0.148; E -0.102
S20: V -0.171; Q 0.019; K 0.018; I -0.359; G -0.039; A -0.104; E -0.022; W -0.419; H -0.219; N 0.076; Y -0.181; R -0.025; M -0.115; T -0.006; L -0.172; P -0.405; D -0.116
E32: K -0.057; F -0.159; D -0.088; G -0.046; C -0.174; M -0.094; Q 0.041; N -0.126; P -0.042; A -0.008; R -0.077; H 0.056; L -0.117; S -0.03; I -0.072
I19: W -0.825; Y -1.26; C -0.21; F -0.317; P -0.948; A -0.341; V -0.154; H -0.852; G -1.07; R -1.01; L -0.23; E -1; S -0.823; T -0.224; Q -1.15
Q31: P 0.018; C 0.056; I -0.074; R -0.061; H -0.209; A -0.045; T 0.013; G -0.064; E 0.01; M -0.049; S -0.019; K -0.141; Y -0.051; V -0.027; F -0.095; L -0.065; N 0.004
T30: Q 0.01; C -0.026; L -0.218; D -0.067; P -0.486; Y -0.142; I -0.211; F -0.074; A -0.166; G -0.116; R -0.095; K -0.089; M -0.102; S 0.002; V -0.033; N -0.352; W -0.043
L15: G -1.06; T 0.059; N -0.613; V 0.039; K -0.572; Q -1.03; S -0.235; H -0.796; I -0.061; E -0.67; P -0.983; A -0.034; M -0.049; Y -0.252; R -0.977
C16: K -0.155; S -0.091; N -0.08; Q 0.072; D -0.353; G -0.249; I -0.01; P -0.124; V -0.074; E -0.148; T -0.027; R -0.061; M -0.04; L -0.019; Y -0.021; W -0.052; F -0.074; A -0.197
P28: T 0.009; I -0.091; W -0.214; H -0.015; V -0.072; G -0.133; L -0.2; Q 0.063; S -0.087; A -0.016; Y -0.032; R -0.054; N -0.024; F -0.187; K -0.076; M -0.005
A21: W -0.244; L -0.305; C -0.137; Y 0.056; Q 0.002; D 0.002; T -0.086; H -0.181; S 0.062; I -0.24; M -0.235; G -0.063; R -0.019; F -0.212; K 0.051; P -0.774; V -0.167; N 0.235
M22: I -0.128; H -0.226; N -0.334; Y -0.243; S -0.306; A -0.234; P -0.739; T -0.616; W -0.336; F -0.201; L 0.015; V -0.354; G -0.257; R -0.205; E -0.719; Q -0.226; C -0.114; D -0.515; K -0.403
R26: N 0.023; V -0.09; C -0.115; L -0.078; D -0.011; Y -0.248; T -0.005; Q -0.018; I -0.199; W -0.134; H -0.09; S -0.04; G -0.009; F -0.089; P -0.195; E -0.016; A -0.021; M -0.124
A25: Q -0.021; D 0.018; V -0.033; K -0.007; P -0.368; G -0.175; N -0.068; M -0.048; I -0.053; S -0.055; R -0.066; W -0.189; C -0.05; H -0.001; E -0.049; L -0.026; F -0.08
V29: W -0.363; F -0.213; G -0.417; P -0.17; Y -0.592; H -0.496; D -0.928; M -0.278; N -1.07; Q -0.386; T -0.162; S -0.065; R -0.792; L -0.408; C 0.02
K27: M -0.1; N -0.156; A -0.077; V -0.079; I -0.072; H -0.119; E -0.054; S -0.045; D -0.235; L -0.12; T 0.034; P -0.689; W -0.184; F -0.182; G -0.132; Q 0.064
L17: V -0.059; G -0.016; P -0.092; T 0.043; H 0.034; A 0.005; F -0.096; N 0.079; S 0.008; W -0.129; D -0.069; I 0.133; M -0.041; E 0.039; C -0.116
E13: Q 0.021; M -0.206; G -0.009; S -0.039; H -0.061; K -0.039; N 0.02; R 0.078; T -0.016; W -0.331; V -0.241; P -0.059; L -0.34
N23: C -0.226; E -0.108; L -0.354; K -0.451; P -0.564; Q -0.123; Y -0.357; H -0.111; W -0.31; D -0.061; R -0.156; T -0.144; V -0.143; I -0.296; S -0.12; G -0.126; A -0.156; F -0.535; M -0.211
S24: A -0.002; W -0.226; Q 0.026; V -0.007; N 0.063; M -0.125; R -0.018; E 0.009; F -0.162; D -0.018; Y -0.093; H -0.141; I 0.018; K 0.037; T 0.058; P -0.34; C -0.084; L -0.078
I14: Q -0.118; P -0.032; Y -0.108; S 0.01; G -0.097; T -0.034; K -0.039; C -0.109; W -0.105; L -0.035; E -0.089; N -0.384; R -0.073; H 0.033; A -0.003; F -0.228; M 0.024; D -0.258; V -0.031
